Experimental data from PMC12985673, “Weaker neuroligin 2–neurexin β1 interaction tethers membranes and recruits gephyrin at membrane junctions through clustering” (Science Advances, 2026).

Target: the molecule itself
Assay: cryo-EM structure; full-length NL2 alone; 20 mM Hepes-Na pH 7.5, 150 mM NaCl, 1 mM MgCl2, 0.5 mM CaCl2, 0.06% digitonin, brain polar lipid extract; only the ECD resolved

B1: full-length neuroligin 2 (NL2), mouse, without the splice insert at site A (receptor, UniProt Q69ZK9 15-836, looked up)
chain: QRGGGGPGGGAPGGPGLGLGSLGEERFPVVNTAYGRVRGVRRELNNEILGPVVQFLGVPYATPPLGARRFQPPEAPASWPGVRNATTLPPACPQNLHGALPAIMLPVWFTDNLEAAATYVQNQSEDCLYLNLYVPTEDDIRDSGKKPVMLFLHGGSYMEGTGNMFDGSVLAAYGNVIVVTLNYRLGVLGFLSTGDQAAKGNYGLLDQIQALRWLSENIAHFGGDPERITIFGSGAGASCVNLLILSHHSEGLFQKAIAQSGTAISSWSVNYQPLKYTRLLAAKVGCDREDSTEAVECLRRKSSRELVDQDVQPARYHIAFGPVVDGDVVPDDPEILMQQGEFLNYDMLIGVNQGEGLKFVEDSAESEDGVSASAFDFTVSNFVDNLYGYPEGKDVLRETIKFMYTDWADRDNGEMRRKTLLALFTDHQWVAPAVATAKLHADYQSPVYFYTFYHHCQAEGRPEWADAAHGDELPYVFGVPMVGATDLFPCNFSKNDVMLSAVVMTYWTNFAKTGDPNQPVPQDTKFIHTKPNRFEEVVWSKFNSKEKQYLHIGLKPRVRDNYRANKVAFWLELVPHLHNLHTELFTTTTRLPPYATRWPPRTPGPGTSGTRRPPPPATLPPESDIDLGPRAYDRFPGDSRDYSTELSVTVAVGASLLFLNILAFAALYYKRDRRQELRCRRLSPPGGSGSGVPGGGPLLPTAGRELPPEEELVSLQLKRGGGVGADPAEALRPACPPDYTLALRRAPDDVPLLAPGALTLLPSGLGPPPPPPPPSLHPFGPFPPPPPTATSHNNTLPHPHSTTRV
modifications: N-glycans
notes: Neuroligin 2, mouse, amplified from pNICE-NL2(−); lacks the splice insert at site A (missing G153-T169 in UniProt Q69ZK9); its own signal peptide was replaced with that of NL1 followed by an HA tag; PreScission site before the C-terminal EGFP; S1A; also called NL2 WT; wild-type NL2; source: HEK293T, BacMam virus, purified (GFP-nanobody resin, eluted by PPX digestion, SEC); not shown: EGFP, …
  stoichiometry N: 2
